Data from PMC11879619.
Where no end group is shown, it is not given here.

Experiments:
[1] = molecular target: He-PDFR-A, long splice variant of the pigment-dispersing factor receptor of Hypsibius exemplaris (Hypsibius exemplaris)
[2] = molecular target: He-PDFR-B, short splice variant of the pigment-dispersing factor receptor of Hypsibius exemplaris (Hypsibius exemplaris)

Row | EC50 of the cAMP response (BRET ratio change of the Epac-L sensor) of HEK293T cells transfected with He-pdfr-A, synthetic peptide at 10^-11 to 10^-5 M [1] | EC50 of the cAMP response (BRET ratio change of the Epac-L sensor) of HEK293T cells transfected with He-pdfr-B, synthetic peptide at 10^-11 to 10^-5 M [2] | Binder
1 | 18 nM | 1.6 nM | NSEILNTLIGLPNKLKQR-NH2 [He-PDF-3, pigment-dispersing factor 3 of Hypsibius exemplaris (synthetic mature peptide)]
2 | 56 nM | 21 nM | NAEVLNSLIGLPRLLKDK-NH2 [He-PDF-1, pigment-dispersing factor 1 of Hypsibius exemplaris (synthetic mature peptide)]
3 | 34 nM | 11 nM | NSEILNTIIGLPNKLRQR-NH2 [He-PDF-2, pigment-dispersing factor 2 of Hypsibius exemplaris (synthetic mature peptide)]
